The text below walks through data of US20100303724A1.

In test [1] the target is biotin-collagelin. Kind of test: SPR; collagen injected on biotin-collagelin on a streptavidin sensorchip.
Test [2] addresses biotin-collagelin. Kind of test: SPR.
Test [3] deals with biotin-collagelin. Kind of test: SPR; biotin-collagelin on a streptavidin sensorchip, IgG 1.25 to 10 µg/mL.

biotin-collagelin, sequence (peptide, as listed by the source): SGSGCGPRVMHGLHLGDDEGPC

Regarding “type I equine fibrillar collagen (Collagen Horm, Nycomed)”, in the test with biotin-collagelin [1], the RU bound was determined as 10 RU.

As for murine laminin (Gibco), the Kd with biotin-collagelin [2] came out at 18.3 µM.

The substance “anti-human platelet GPVI 9O12.2 IgG (antibody)” showed a Kd with biotin-collagelin [3] of 1000 nM.
